What was measured:
[1] = target: D-lactate dehydrogenase from Sporolactobacillus inulinus CASD (DLDH744) (Sporolactobacillus inulinus CASD); test: crystal structure; DLDH744 in complex with NAD+; molecular replacement, refined at 3.15 Å; homo-dimer in one asymmetric unit
purified protein [2] = substrate: N[C@@H](CCC(=O)O)C(=O)O; test: purified protein; format: biochemical, Sporolactobacillus inulinus; conditions: 100 mM PBS pH 5.5, 30°C, oxidative deamination, cofactor of the kinetic run not clearly told (0.2 mM NAD(P)+ in activity assay)
purified protein [3] = substrate: CC(=O)C(=O)O; test: purified protein; format: biochemical, Sporolactobacillus inulinus; conditions: 100 mM PBS pH 5.5, 30°C, 0.2 mM NADH or NADPH (which one not told)
purified protein [4] = substrate: O=C(O)C(=O)Cc1ccccc1; test: purified protein; format: biochemical, Sporolactobacillus inulinus; conditions: 100 mM PBS pH 5.5, 30°C, 0.2 mM NADH or NADPH (which one not told)

In the case of “D-lactate dehydrogenase from Sporolactobacillus inulinus CASD (DLDH744) (enzyme)”, the stoichiometry N [1] is reported as 2.

B1: DLDH744 (Sporolactobacillus inulinus CASD) (protein)
chain: MKIIMFSVRDDEEAAIREWEKKTGVQVDINRLELDAETAQLTKGYDGIVIQQRSHISNPAVYETLQKNGLRQLTSRTAGYDMIDLEQASERGLVVTNVPAYSPNSVAELALTQTMRLIRNLPLFDARGAEQDFRWAGLMAREIRSLTVGIIGAGRIGGTVARLFKALGATVIANDIVERVELKDIVTYVSKEELLQAADVVTLHVPLMDSTTQLIDADALALMKNDAVLINASRGPVVDTDALIAALQNKQIAGAALDTLNGEEHFFNQDLCGKELPSEQLKVLRTLPNVLITPHIGFYTNKAVQNMVEISLNDVLAILKTGTSEHQLNKVAVEN
notes: full length, 335 residues, homodimer; vector pET-28a(+), E. coli BL21(DE3); purified
In the case of B1, the Km (purified protein [2]) is reported as 5.7 ± 0.09 mM, the kcat (purified protein [2]) is reported as 0.372 ± 0.0017 s⁻¹ and the Km (purified protein [3]) is reported as 3.4 ± 0.02 mM. It also gave a kcat (purified protein [3]) of 8.537 ± 0.127 s⁻¹ and a Km (purified protein [4]) of 3.32 ± 0.08 mM.

Reference: paper PMC4580590
